In PMC6859074:

Columns and labels:
[1] = molecular target: 14 subunit-CCAN complex (constitutive centromere associated network), S. cerevisiae (S. cerevisiae) (UniProt P35201); experiment: cryo-EM structure
[2] = molecular target: 14 subunit-CCAN complex (constitutive centromere associated network), S. cerevisiae (S. cerevisiae) (UniProt P35201); experiment: SEC-MALS
[3] = molecular target: 14 subunit-CCAN complex (constitutive centromere associated network), S. cerevisiae (S. cerevisiae) (UniProt P35201); experiment: AUC
[4] = molecular target: S. cerevisiae Cenp-A nucleosome wrapped with the 147 bp Widom 601 sequence (S. cerevisiae) (UniProt P36012); experiment: AUC
[5] = molecular target: S. cerevisiae Cenp-A nucleosome wrapped with the 147 bp Widom 601 sequence (S. cerevisiae) (UniProt P36012); experiment: SEC-MALS + AUC

14 subunit-CCAN complex (constitutive centromere associated network), S. cerevisiae (from UniProt P35201;Q12262;Q12748;P47167;P43618;Q2V2P8;P38265;P38907;Q06675;Q02732;P53298;P38313;Q12493;Q06162)
stoichiometry N [1]: 2
stoichiometry N [2]: 2
stoichiometry N [3]: 2
stoichiometry N (CCAN per Cenp-A^Nuc) [4]: 1
stoichiometry N (CCAN per Cenp-A^Nuc) [5]: 2
